Measurements reported in paper PMC10090079.

Key:
[1] = biological target: OsCas12f1 from Oscillibacter sp. (Oscillibacter sp.); test: SEC; Cas12f1 RNP assembled in vitro at 4:3 molar ratio protein:sgRNA in buffer D (25 mM Tris-HCl pH 8.0, 150 mM NaCl, 2 mM DTT, 1 mM MgCl2) at 37 °C for 30 min; Superdex 200 Increase 10/300 equilibrated with buffer D; calibrated with Gel Filtration Standard (Bio-Rad); dimer in presence of sgRNA
[2] = biological target: RhCas12f1 from Ruminiclostridium herbifermentans (Ruminiclostridium herbifermentans); test: as above

Substance	stoichiometry N [1]	stoichiometry N [2]
OsCas12f1 from Oscillibacter sp. (enzyme)	2	–
RhCas12f1 from Ruminiclostridium herbifermentans (enzyme)	–	2
